Results: PMC3965363 (Neuropharmacology, 2014)
Like-named read-outs stand apart in the source and are kept apart here.

Experiments:
brain of C57BL/6 mice = assay: Brain clearance index; assay type: in vivo, mouse
[1] = Integrity of 125I-Aβ40 in media without cells; assay type: physicochemical; conditions: 0.1 nM 125I-Aβ40 in media without cells
bEnd3 cells [2] = tested on: bEnd3 cells
hCMEC/D3 cells [3] = tested on: hCMEC/D3 cells
bEnd3 cells [4] = tested on: bEnd3 cells; remark: listed apart in the source
hCMEC/D3 cells [5] = tested on: hCMEC/D3 cells; remark: listed apart in the source
bEnd3 cells [6] = tested on: bEnd3 cells; remark: listed apart in the source
bEnd3 cells [7] = assay: Aβ40 degradation in bEnd3 cells with IDE or neprilysin inhibitor; assay type: cell-based, mouse; conditions: bEnd3, thiorphan 2 mM
hCMEC/D3 cells [8] = assay: Aβ40 degradation in hCMEC/D3 cells with IDE or neprilysin inhibitor; assay type: cell-based, human; conditions: hCMEC/D3, thiorphan 2 mM
human brain = conditions: ref Mawuenyega et al., 2010, cited from earlier work
mouse brain = conditions: ref Barten et al., 2005, Cirrito et al., 2003, cited from earlier work
brain = conditions: ref Shibata et al., 2000; cited from earlier work
BBB = conditions: ref Ito et al., 2006; cited from earlier work

Molecule: 125I-Aβ40: radioiodinated amyloid-β 40 peptide tracer (PerkinElmer)
- BCITotal(%), total brain clearance (BBB efflux + degradation) (brain of C57BL/6 mice; mouse): 58.7±3.9%
- BCIBBB(%), clearance across BBB (brain of C57BL/6 mice; mouse, in vivo): 35.6±3.3%
- BCIDegradation(%), clearance by brain degradation (brain of C57BL/6 mice; mouse, in vivo): 23.1±2.3%
- clearance across BBB as share of BCITotal(%) (brain of C57BL/6 mice; mouse, in vivo): 62%
- dimer or higher oligomer formation ([1]; 12 h, 16% bis-tris gel electrophoresis): absence of dimers or higher oligomer formation
- dissociation of 125I from Aβ40 ([1]; investigated time points): insignificant dissociation
- effect of RAGE inhibition on 125I-Aβ40 degradation (bEnd3 cells [2]; bEnd3, RAGE-IgG 5 µg/ml, 0.1 nM, 15 min, P>0.05): not altered
- effect of RAGE inhibition on 125I-Aβ40 degradation (hCMEC/D3 cells [3]; hCMEC/D3, RAGE-IgG 5 µg/ml, 0.1 nM, 12 h, P>0.05): not altered
- effect of inhibition of RAGE, P-gp, or LRP1 on degradation during transport (bEnd3 cells [4]; bEnd3, either direction, RAGE-IgG 5 µg/ml, valspodar 5 µM or RAP 1 µM, 30 min): did not affect
- effect of inhibition of P-gp on A→B transport (bEnd3 cells [4]; bEnd3, valspodar 5 µM pre- and co-incubated, 0.1 nM, 30 min): no alteration
- effect of inhibition of RAGE, P-gp, or LRP1 on degradation during transport (hCMEC/D3 cells [5]; hCMEC/D3, either direction, RAGE-IgG 5 µg/ml, valspodar 5 µM or RAP 1 µM, 12 h): did not affect
- Intrinsic uptake (Vmax/Km) (bEnd3 cells [6]): 2848 nL/min

Molecule: O=C(O)CNC(=O)C(CS)Cc1ccccc1 (centres unmarked) [thiorphan]
- effect of neprilysin inhibition on Aβ40 degradation (bEnd3 cells [7]): did not show any significant effect
- effect of neprilysin inhibition on Aβ40 degradation (hCMEC/D3 cells [8]): did not show any significant effect

Molecule: Aβ40: amyloid-β peptide Aβ40, by-product of proteolytic degradation of amyloid precursor protein
- effect of P-gp inhibition on brain degradation (brain of C57BL/6 mice; valspodar 40 µM intracerebral, 30 min, NS in Figure 1C): without altering
- Aβ40 cleared from the brain per hour (human brain; cognitively normal individuals): about 7%
- corresponding half-life of Aβ40 in brain (human brain; cognitively normal individuals): ~ 10 h
- Aβ40 cleared from the brain per hour (human brain; patients with AD): 5.2%
- corresponding half-life of Aβ40 in brain (human brain; patients with AD): ~ 13 h
- half-life of human Aβ40 in mouse brain (mouse brain; PDAPP mice): 2 h
- half-life of human Aβ40 in mouse brain (mouse brain; Tg2576 mice): 0.63 h
- contribution of CSF flow to overall brain Aβ40 clearance (brain): 10–15%

Molecule: Aβ42: amyloid-β peptide Aβ42, prone to rapid aggregation
- clearance across the BBB compared to Aβ40 (BBB): slower

Molecule: valspodar
- change in 125I-Aβ40 accumulation (P-gp inhibition) (bEnd3 cells [2]; bEnd3, valspodar 5 µM pre- and co-incubated, 0.1 nM 125I-Aβ40, 15 min, P>0.05): did not cause any significant change
- effect of P-gp inhibition on 125I-Aβ40 degradation (bEnd3 cells [2]; bEnd3, valspodar 5 µM, 0.1 nM 125I-Aβ40, 15 min, P>0.05): no effect
- effect of P-gp inhibition on 125I-Aβ40 degradation (hCMEC/D3 cells [3]; hCMEC/D3, valspodar 5 µM, 0.1 nM 125I-Aβ40, 12 h, P>0.05): no effect

B1: RAP: an LRP1 inhibitor (receptor-associated protein; Oxford Biomedical Research) (protein, UniProt P30533 35-357, looked up)
Alpha-2-macroglobulin …: YSREKNQPKPSPKRESGEEFRMEKLNQLWEKAQRLHLPPVRLAELHADLKIQERDELAWKKLKLDGLDEDGEKEARLIRNLNVILAKYGLDGKKDARQVTSNSLSGTQEDGLDDPRLEKLWHKAKTSGKFSGEELDKLWREFLHHKEKVHEYNVLLETLSRTEEIHENVISPSDLSDIKGSVLHSRHTELKEKLRSINQGLDRLRRVSHQGYSTEAEFEEPRVIDLWDLAQSANLTDKELEAFREELKHFEAKIEKHNHYQKQLEIAHEKLRHAESVGDGERVSRSREKHALLEGRTKELGYTVKKHLQDLSGRISRARHNEL
- decrease of cellular level of intact 125I-Aβ40 (LRP1 inhibition) (bEnd3 cells [2]; bEnd3, RAP 1 µM pre- and co-incubated, 0.1 nM 125I-Aβ40, 15 min, P<0.001): 67%
- decrease of 125I-Aβ40 degradation (LRP1 inhibition) (bEnd3 cells [2]; bEnd3, RAP 1 µM, 0.1 nM 125I-Aβ40, 15 min, P<0.01): 24%
- decrease of cellular level of intact 125I-Aβ40 (LRP1 inhibition) (hCMEC/D3 cells [3]; hCMEC/D3, RAP 1 µM pre- and co-incubated, 0.1 nM 125I-Aβ40, 12 h, P<0.001): 42%
- decrease of 125I-Aβ40 degradation (LRP1 inhibition) (hCMEC/D3 cells [3]; hCMEC/D3, RAP 1 µM, 0.1 nM 125I-Aβ40, 12 h, P<0.01): 28%
- decrease of intact 125I-Aβ40 transport B→A (LRP1 inhibition) (bEnd3 cells [4]; bEnd3, RAP 1 µM pre- and co-incubated, 0.1 nM 125I-Aβ40, 30 min, P<0.01): 42%
- decrease of intact 125I-Aβ40 transport B→A (LRP1 inhibition) (hCMEC/D3 cells [5]; hCMEC/D3, RAP 1 µM pre- and co-incubated, 0.1 nM 125I-Aβ40, 12 h, P<0.01): 42%
